Source: PMC12316308, “Interactions of substrates and phosphinyl containing inhibitors with bacterial and human zinc proteases” (PLOS One, 2025)

Tested on: T1, COc1ccc2c(CC(=O)N3CCC[C@H]3C(=O)N[C@@H](CC(C)C)C(=O)NCC(=O)N[C@@H](CC(C)C)C(=O)N[C@@H](CNc3ccc([N+](=O)[O-])cc3[N+](=O)[O-])C(=O)N[C@@H](C)C(=O)N[C@@H](CCCNC(=N)N)C(N)=O)cc(=O)oc2c1
T1 construct: made in house; host or cells: Sf9 and High Five insect cells
Experiment: Determination of Km values
Assay type: biochemical, human
Conditions: other: MMP-9(MT); 1% DMSO; n = 3; pH 7.5
Protocol: Determination of Km values. […] Substrate concentrations used were 1–10 µM in a total volume of 100 µL of 0.1 M Hepes pH 7.5 containing 10 mM CaCl2, 0.005% Brij-35 and 1.0% DMSO. […] Initial rate experiments were performed as described above to determine enzyme reaction velocities using a LS 50 Luminescence Spectrometer and the FL WinLab Software Package (Perkin Elmer). The Km and s.d values were calculated with Graph Pad Prism 5 using the Michaelis-Mention equation. […] During these experiments, reactions were monitored for only one minute, and initial reaction velocities were determined from the activity curves.

Mag-Trypsin activated recombinant MMP-9 (MMP-9(MT)) (Homo sapiens), sequence (chain, as listed by the source): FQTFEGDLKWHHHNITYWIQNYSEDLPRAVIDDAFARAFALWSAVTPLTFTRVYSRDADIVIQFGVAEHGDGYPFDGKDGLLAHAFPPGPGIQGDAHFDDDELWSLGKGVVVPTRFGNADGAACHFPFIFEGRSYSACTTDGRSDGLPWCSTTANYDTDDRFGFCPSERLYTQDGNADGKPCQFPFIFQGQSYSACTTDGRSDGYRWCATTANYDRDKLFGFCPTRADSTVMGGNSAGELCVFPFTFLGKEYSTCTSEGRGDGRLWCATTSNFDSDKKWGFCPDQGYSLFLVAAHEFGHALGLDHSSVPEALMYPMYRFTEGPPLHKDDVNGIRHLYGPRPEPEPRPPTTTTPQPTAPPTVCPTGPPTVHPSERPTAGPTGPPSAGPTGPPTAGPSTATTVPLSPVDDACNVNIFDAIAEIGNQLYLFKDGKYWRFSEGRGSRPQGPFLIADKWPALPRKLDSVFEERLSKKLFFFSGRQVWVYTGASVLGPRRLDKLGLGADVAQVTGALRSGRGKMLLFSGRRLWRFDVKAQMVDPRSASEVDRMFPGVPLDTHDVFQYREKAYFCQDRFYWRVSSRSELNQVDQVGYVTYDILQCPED

Mag-Trypsin activated recombinant MMP-9 (MMP-9(MT)) (Homo sapiens)
Km: 2.7 ± 0.5 µM
